# Molecular target: human interleukin 12 (recombinant human IL-12, p70 heterodimer) (human) (UniProt P29459)
# Test: cell-based or functional assay
# Sequence of human interleukin 12 (recombinant human IL-12, p70 heterodimer) (human) (P29459 23-219, chain 1 of 2): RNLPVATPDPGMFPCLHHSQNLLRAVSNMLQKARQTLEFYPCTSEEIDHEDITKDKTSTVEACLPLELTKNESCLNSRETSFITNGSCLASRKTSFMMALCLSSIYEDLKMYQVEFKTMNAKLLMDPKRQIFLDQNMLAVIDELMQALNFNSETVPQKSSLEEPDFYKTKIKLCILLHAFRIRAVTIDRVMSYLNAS
# Sequence of human interleukin 12 (recombinant human IL-12, p70 heterodimer) (human) (P29460 23-328, chain 2 of 2, further chain): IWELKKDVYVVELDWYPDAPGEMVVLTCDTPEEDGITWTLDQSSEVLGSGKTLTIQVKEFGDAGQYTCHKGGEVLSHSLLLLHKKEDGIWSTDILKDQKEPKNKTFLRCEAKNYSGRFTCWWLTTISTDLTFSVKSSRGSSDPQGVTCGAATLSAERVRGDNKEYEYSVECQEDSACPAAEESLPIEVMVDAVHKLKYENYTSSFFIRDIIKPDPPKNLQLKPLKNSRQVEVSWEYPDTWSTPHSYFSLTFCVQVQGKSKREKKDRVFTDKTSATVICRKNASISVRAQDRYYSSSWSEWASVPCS
row,PHA assay IC50,Substance
1,0.06 nM,Y61-L94F (antibody)
2,0.08 nM,Y61-L94N (antibody)

# Molecular target: human interleukin 12 (p70 heterodimer of p35 and p40) (human) (UniProt P29459)
# Test: SPR (BIAcore), off-rate
# Sequence of human interleukin 12 (p70 heterodimer of p35 and p40) (human) (P29459 23-219, chain 1 of 2): as the sequence (P29459 23-219, chain 1 of 2) above
# Sequence of human interleukin 12 (p70 heterodimer of p35 and p40) (human) (P29460 23-328, chain 2 of 2, further chain): as the sequence (P29460 23-328, chain 2 of 2, further chain) above
row,Substance,koff
1,"SEQ ID NO: 453 (Y61, G at H101) (antibody)",0.00375 s⁻¹
2,Y61 with L50→Y (antibody),0.000174 s⁻¹
3,"SEQ ID NO: 455 (Y61, V at H101) (antibody)",0.00163 s⁻¹
4,"SEQ ID NO: 396 (Y61, S at H58) (antibody)",0.000941 s⁻¹
5,"SEQ ID NO: 416 (Y61, H at H96) (antibody)",0.000237 s⁻¹
6,"SEQ ID NO: 443 (Y61, V at H98) (antibody)",0.000293 s⁻¹
7,"SEQ ID NO: 460 (Y61, R at H102) (antibody)",0.000575 s⁻¹
8,Y61 with H31S→E (antibody),0.000219 s⁻¹
9,"SEQ ID NO: 405 (Y61, S at H95) (antibody)",0.00193 s⁻¹
10,"SEQ ID NO: 425 (Y61, W at H96) (antibody)",0.00197 s⁻¹
11,"SEQ ID NO: 426 (Y61, D at H97) (antibody)",0.00202 s⁻¹
12,"SEQ ID NO: 429 (Y61, H at H97) (antibody)",0.00191 s⁻¹
13,"SEQ ID NO: 398 (Y61, N at H58) (antibody)",0.000831 s⁻¹
14,"SEQ ID NO: 423 (Y61, I at H96) (antibody)",0.00208 s⁻¹
15,"SEQ ID NO: 389 (Y61, G at H56) (antibody)",0.000272 s⁻¹
16,"SEQ ID NO: 450 (Y61, H at H101) (antibody)",0.00327 s⁻¹
17,"SEQ ID NO: 404 (Y61, E at H95) (antibody)",0.00231 s⁻¹
18,"SEQ ID NO: 390 (Y61, M at H56) (antibody)",0.000383 s⁻¹
19,"SEQ ID NO: 458 (Y61, H at H102) (antibody)",0.00018 s⁻¹
20,"SEQ ID NO: 463 (Y61, G at H102) (antibody)",0.000692 s⁻¹
21,"SEQ ID NO: 468 (Y61, W at H102) (antibody)",0.000235 s⁻¹

row,Substance,koff
1,"SEQ ID NO: 442 (Y61, A at H98) (antibody)",0.000673 s⁻¹
2,"SEQ ID NO: 431 (Y61, N at H97) (antibody)",0.00221 s⁻¹
3,"SEQ ID NO: 433 (Y61, G at H97) (antibody)",0.00229 s⁻¹
4,"SEQ ID NO: 452 (Y61, N at H101) (antibody)",0.00223 s⁻¹
5,"SEQ ID NO: 437 (Y61, W at H97) (antibody)",0.00239 s⁻¹
6,"SEQ ID NO: 459 (Y61, K at H102) (antibody)",0.000405 s⁻¹
7,"SEQ ID NO: 388 (Y61, T at H56) (antibody)",0.000235 s⁻¹
8,"SEQ ID NO: 454 (Y61, A at H101) (antibody)",0.00106 s⁻¹
9,"SEQ ID NO: 394 (Y61, F at H56) (antibody)",0.000345 s⁻¹
10,"SEQ ID NO: 403 (Y61, F at H58) (antibody)",0.000794 s⁻¹
11,"SEQ ID NO: 467 (Y61, P at H102) (antibody)",0.00181 s⁻¹
12,"SEQ ID NO: 436 (Y61, P at H97) (antibody)",0.003 s⁻¹
13,"SEQ ID NO: 465 (Y61, L at H102) (antibody)",0.000956 s⁻¹
14,"SEQ ID NO: 441 (Y61, T at H98) (antibody)",0.000227 s⁻¹
15,"SEQ ID NO: 414 (Y61, D at H96) (antibody)",0.00224 s⁻¹
16,"SEQ ID NO: 391 (Y61, L at H56) (antibody)",0.000264 s⁻¹
17,"SEQ ID NO: 415 (Y61, C at H96) (antibody)",0.000242 s⁻¹
18,"SEQ ID NO: 445 (Y61, I at H98) (antibody)",0.000343 s⁻¹
19,"SEQ ID NO: 440 (Y61, R at H98) (antibody)",0.00034 s⁻¹
20,"SEQ ID NO: 407 (Y61, K at H95) (antibody)",0.00228 s⁻¹

# Further lines, results first:
row,koff,Substance
1,0.000996 s⁻¹,"SEQ ID NO: 466 (Y61, I at H102) (antibody)"
2,0.000449 s⁻¹,"SEQ ID NO: 448 (Y61, S at H101) (antibody)"
3,0.00147 s⁻¹,"SEQ ID NO: 411 (Y61, L at H95) (antibody)"
4,0.00471 s⁻¹,"SEQ ID NO: 412 (Y61, P at H95) (antibody)"
5,0.00273 s⁻¹,"SEQ ID NO: 428 (Y61, Y at H97) (antibody)"
6,0.000299 s⁻¹,"SEQ ID NO: 393 (Y61, P at H56) (antibody)"
7,0.000333 s⁻¹,"SEQ ID NO: 462 (Y61, T at H102) (antibody)"
8,0.00129 s⁻¹,"SEQ ID NO: 424 (Y61, P at H96) (antibody)"
9,0.000982 s⁻¹,"SEQ ID NO: 417 (Y61, R at H96) (antibody)"
10,0.00143 s⁻¹,"SEQ ID NO: 434 (Y61, A at H97) (antibody)"
11,0.00514 s⁻¹,"SEQ ID NO: 413 (Y61, F at H95) (antibody)"
12,0.00073 s⁻¹,"SEQ ID NO: 400 (Y61, L at H58) (antibody)"
13,0.000657 s⁻¹,"SEQ ID NO: 401 (Y61, I at H58) (antibody)"
14,0.000416 s⁻¹,"SEQ ID NO: 395 (Y61, E at H58) (antibody)"
15,0.0011 s⁻¹,"SEQ ID NO: 451 (Y61, R at H101) (antibody)"
16,0.000318 s⁻¹,"SEQ ID NO: 469 (Y61, F at H102) (antibody)"
17,0.00162 s⁻¹,"SEQ ID NO: 456 (Y61, I at H101) (antibody)"
18,0.000169 s⁻¹,"SEQ ID NO: 392 (Y61, I at H56) (antibody)"
19,0.000325 s⁻¹,"SEQ ID NO: 457 (Y61, S at H102) (antibody)"
20,0.00202 s⁻¹,"SEQ ID NO: 409 (Y61, T at H95) (antibody)"
21,0.0018 s⁻¹,"SEQ ID NO: 438 (Y61, F at H97) (antibody)"
22,0.00204 s⁻¹,"SEQ ID NO: 421 (Y61, M at H96) (antibody)"
23,0.0015 s⁻¹,"SEQ ID NO: 410 (Y61, A at H95) (antibody)"
24,0.00208 s⁻¹,"SEQ ID NO: 435 (Y61, I at H97) (antibody)"
25,0.000628 s⁻¹,"SEQ ID NO: 402 (Y61, P at H58) (antibody)"
26,0.00039 s⁻¹,"SEQ ID NO: 385 (Y61, Y at H56) (antibody)"
27,0.000524 s⁻¹,"SEQ ID NO: 399 (Y61, V at H58) (antibody)"
28,0.00042 s⁻¹,"SEQ ID NO: 386 (Y61, H at H56) (antibody)"
29,0.000382 s⁻¹,"SEQ ID NO: 464 (Y61, A at H102) (antibody)"
